Assay: protease stability score; higher = more stable; yeast display proteolysis, trypsin and chymotrypsin;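 further: relative to predicted unfolded state with 0 unfolded-like and 1 meaning tenfold more protease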

Sequence	protease stability score
DDEEKRIQEASREMLEIMRTGDEERLKQMADPNARWHTKIDGQEVHRHGREEFIKIFRWVMERLGIDHVELHSIHIYNGQNDIDSRFHFDGRNHRILFIWVVYNGRLHHVRIEIQ	1.58
DDEEKRYRLFYKIALTMFETGDWQILHELADPHVKVRVGDKDLHGREELTHFWKELVERYPNMKIRLDDLSLQGEKIHIEGTWHFDGKELTTHIDLIMVDGKLKETRYEHK	1.4
DDEEKSRDIAIEIFVHLLRTGDEHEMSKLADPHVKVNINGRELVGMEIFIEWIRRWSKEIRLHDVKVKDVRTQGDKIEVDGREDGIQGDKRKEVETSFFFRKYNGKWFIERMEFR	1.96
DDEEKYFRMAVHHIIHLLHTGDETDSEHQADPDVRITVGDKRFHGREDFRDWVRELTDRYKNMTFRLKSVDVQGDFIILHGLLHFNGKNVEFDVFSWKFNGKWFMHHIIVR	1.72
DDEERANRELLELLIHSYRTGDWKLWHELVDPHVRTSLHQGEFEMKSIGRHYVRDIMTYMGVDHVELRHLEIQGDKLIMHLELDVNGRRLHVILFLSKINGVWILREEEIRFI	1.3
DDEERDLKRAYELWVHNMLTGNWRMLNYLADPNTKIEFENHKSHGRESLHELLKRLGVDHMHIELEDMHFVGDKIILHTREEHRVGDKEIRTEVHIDARKINGRWRLQSVHFR	0.97
DDEERDVLRIMRIVLKLWKTGNEEKYEHLLDPDVRMEVDGRNLHGRETVSHWLHRLREEIRIDDYKIETVRAQGNKSILHVRTDGIINGQEVRLTEEITIIVINGRIQTFSIHRH	0.628
DDEEREVHKATEDWFKLVKTGNEEVRHELLDPHTRLIIGDKEFHGREELLRWERELGYKFKTFIITDIKVQGNKAIIHGVDVGTINGVERHLDVRLLILKVNGKWITREIEVR	1.62
DDEERHASTIFELLMEVILTGDEDTFEELADPNTRFDINGREFHGREYMSHLKTQYDHWYLKHMHITSSEVQGNFAILNSETDYELEYGDKRVSFYERWHLFVLKVDGRWIIHSFRIN	0.985
DDEERIASFVIKMWLHSYLTGDENLLREFLDPNVKVRNEVNGRDWTHHGREALLWLLEFLGVKHVEHVRLHDLLVVNGRATSREIYHGKIGDKRTTFHFTLYIIRIDGVVKKFEIELE	1.3
DDEERILHRIKELFEAAMHTGDWRLEFQQADPHTRVEIGDKEIHGMENIFDMLEDFWRELGIDQIDVEVRDEDSHIQGDKIILHVDITLRYNGVQERFKSTIILQKIDGRWHKKTEHRG	1.16
DDEERIWRELLEDLLKALKTGDEHRIQDLLDPHVRLEIGDKEFHGREEVTEWFRRLMEKIKGAVFHIHIHDFRIQGDKLLADTRLIIHIGDKHEESETEMIVLKVNGRWLIDEIRVK	2.59
DDEERIWRELLEIWIKLMETGDEDTTRKNADPHAKHILVIGDFTLVLHGWDLTVKFLKELSERMGINHIHVHRVEAINGQVHIDSRLRVGDKDVHTHIRIKIVDGVLKETNLHIK	1.62
DDEERLIKHLAERWMKDLHTGNEDSLEEMADPNWRLRQIVNGQEVRDIGREKMIEVIREIEKKLGIDRIELHVHKVEIQGDKAHLNTEIRYNGQSSLHEIRLTIINGRLHSVTIHVK	0.85
DDEERQAREFLKNYIRSLLTGDEDTLDELVDPNARWHVGDYHMIGRDSVSFLTKHLRIKHIEIKDIEIYGNKAIVLVHMHGIIDGKERDTDIIIFVEKINGQWKVREHRIS	1.15
DDEERWTEEMYRIMIHIEKTGDEHTFSRLADPNVRLIVGDKHFHGRETFIEQLRKLIEHIRVEKIEIRHVELVGEKVILVMKRLSRIDGREVELEVHVEIVIVNGRYKMIRIEIR	1.43
DDEHEHYRRQTKLVEDLFLTGDWDKIFRLLDPHVRMEINGRQHIGRERVTTEFKQHIEDLGIDHVEIKRSHVQGEKMHLDGVIEFNGRKQSSELIIVIIDGVWHSIVVQLH	1.09
DDEHHDAVRVIEEFVTSVLTGNWEILKELLDPNVKFEIDGREIWGREFVNREIEEIRIRSRMEVRSVRFQGEKMEVDTEYNVDLNIGDKRFHYRRSTRVILEKYDGRWRIQSFHFE	0.284
DDEIRFLFKIAHLWMRSHSTGDERVLEHLMDPHVRIDFNGVELHGWKDMLTEWKEIRIIIEHVEIDHYDVQGDKMELNGRISGTFHFNGRTRTTDFRSELRFTVINGKLHSVEIHYR	1.41
DDEKARQQVREFIRAMETGDEDSMVQQLDENAHVHIGDHVWRGREQARNAFKEFVKQFDRIEVKRVEYRNGDVVIDAVANVNGVRVRIIFKIHIHNGRIKNLRIEYRDEEEKKQLDG	2.29
DDEKEEVERLARLFIHYVLTGDEDTLREMVDPNVRIRIGDKRNHGMKFLLHLITVWLERVDHVRIEVDESRLVNGQLNMTGTLHLHQGDKTQELRTRSHLVIVNGVMKEITFEYD	2.06
DDEKEILRIAIEWSELVSNTGDEKTVEHLADPHVRIHYGDKDYVGRERMVEFVHRFKNLKLEIKDTDVQGEYIHVNGKMKFNGRTFDVEIVVFKIDGVWFEKSVEFK	1.38
DDEKEITHTLSEIWIHTVRTGDEDTATNLVDPHARLDYNGREFHGRELISELMIRHLTEWRITHIHIDHVRVINGRFEIHSHQDGHFDGVRRKVEVHIDIIIIDGVVKEIRIRVH	1.17
DDEKKHALEVVRKYFRAFLTGDEDESFELMDPRVKVDINGRDIHGWEEYRKWMEEIRIHDHRVKEEHFRVYDGRLIIIIRGELNGEINGRRFEFEFNIIIVVAKVDGQWRTESFKMEIH	1.31
DDEKREMVEMLKIFIHNFLTGDWRTMEKLLDPDARFIINGQTFHGREWVRHSLHVFLHQFEHIHHIVIHDIDLQGDKVNIDGKLDGTVNGKRRLLDSHWHLRVVNGRVKEIEIHIH	2.12

Sequence	protease stability score
DDEKRFTHEAIKTSEEVMKTGDERLMRELMDPNVRSEIDGRDVHGMDIITEWLSHIRIEDIKLRRITVIDGVITIRGEVYFEQGDKIVTFDVTIIYEKIDGRWLLRSLHVK	1.53
DDEKRWLEELWKDIQRADETGDEEHFLHLADPHVRFHVNGRDVHGMELVAHILLKWLNEIRIKDFRLKDMRMFENHLRVDGSIVLIVNGQEIETDMILRFEVVNGRIKDREIDIR	1.37
DDELKTTHKFAKEFVDQLTTGDWEWHDKLFDPDARMSMIIDGREVRLHGREELTRWHLKVFEDLGIERVHSRYEHMHVVDGQIHFRGVLEFNGQRREFHIDMRIVDGRMHEFHEIHN	0.329
DDENKFWKEFMDIWVRSLETGNEEELAKLIDPHARLHVNGVENHGREIVLKWFHHHLKHAGVDHRTFHDMRVFDGVNFIDGTLHVNGVTREIRLKVYVVNGVVESEEVRIH	1.03
DDENKQMEEAIWIWKYMVETGDERINHEFADPHARVDINGKEHHGREEIERFLIEFSEKVKNLRVEIEDFRSINGRVDVILRLTVNGKRVETRVHAIKVDGKWLIKEVRFH	0.624
DDEREEAKRAIEDLVRDLETGNWKHLHEFLDPNVRIRVGDKDIHGREEATHHLRRLHEKFKNLKVIIEHVDIVGNKIIEHGHIEIGDKSMEVEIIIIKINGRWYIKEIHIK	1.6
DDERRDTKLAIDLWVETWHTGDEQMFEDLADPHTRIIIGDKEHVGREEAVRYSSELIRRLGANHVDVTFRETRMYNGRIDVKGEINLHIGDKDHHREVHVYSRKIDGRWVLERIEFR	1.3
DDERRHTEKVLELWTRFLYTGDEHRMSELLDPNTQLRVGDKDLHGWHLFVHFISELIRKLGVDHLEVELKHADIINGRAELHVKFHFHTENHHTTINIIFFYEKIDGVWLIKSIEIK	2.04
DDESEHSMKVFRFWAEARETGDEDTLTRLLDPHARLIQGDKHIIGREEWTRIIKERREQYGVKHIHFHIQDMRIFNGRVHLKVHYEIKFDGQSVTIDSEIIITKVDGRWYFESETKR	1.11
DDESEKAEHIYELLTRLMLTGDEQIIHKLMDPNVRLDVDGQEYHGREEVVSAWRRWLKEMGVDHLELKSVRLIFFNGQLHIHINGEVRFNGRKHRVHIRLVLRKIDGVWHLEELEVEYK	1.92
DDETDRSEKVAQMFVDLLTTGDWERLRHLMDPHVRMDINGQESHGRENVFRFFQKIRERLGLDRFHIEVTHIDVQGDKALWHGTLNINGQEHEVIIRIDVVDGRWHEVRMEVR	2.62
DDETEHLEKSVRDLVTSIKTGNWEEFYKMFDPNMRVDINGQQYHGRENAVEMVRQLWERLGAKHVHLTEIRYYGDKLELIMHVHFDGRDKEEEYIAVKIDGRWLLTEVRFK	2.08
DDETEYAREASEMWVKLLITGDEEIREEYIDPHAKMDQGEYEYHGREQVSRFSKKLIDTMGVKHFDIKSIEIQGDKVILFMHEHFENRRVDLIFYSRKFDGRWHYRRMEVIHR	0.543
DDETHEYEEAMELWVKALTTGNEDLLKDLHDPHTLTRINGRTEHGRHTWVEIRRKLGVKHLHIETSRLIDGRVHLHARIHVGDKNLEIIVIIVKVNGRWLTSEINIH	0.951
DDFDRNIEKLMKDLLHNWRTGNEDEFLRLIDPNARLTVGDYESHGREEYARVLRELLEEMRLHQVHIRHVEYFDGQADIDIREDGFINGQRIILTTRIIVVKVNGRWVVKSHVIN	0.967
DDHDEELQRIVEIIFRHISTGNFDHLYKYLDPNVRMIIWIGDKNITAHGREHMSEVLHKLWKHLRIKDVDLHDVKSQGEKAIVDTHVHGIIDGKDTHIKTTLIVIIVDGRLKQMEVEVK	2.59
DDHDKLLQKLMRFWLWAFLTGDEDHFDEMADPNTRLSSIVNGRDIQLHGREQVNKHFKELRLHHFILRTWSVYDGRVEIDGQMDGEYDGRRIDTRVTIIIVIINGRSTREHLDFK	0.261
DDHDKLMQDLTSMFVRDLITGDEKSMDELLDPDVKVDINGQETHGRDHFLEILNKNLKEWRVKDVKIEHVEWYGNKAHIRMEVIGNWNGKEHSLDFELHLLIVNGQFKEIRIKIR	1.5
DDHEEEVLRLLHTVLRIMWTGDEDELHRLADPNMKMWINGRKFHGRETAIETLKRMVNEIRIHEIHVKDFDVIGEYAHVDTRVRGTINGKETILNERIIVLVIDGRIKSIRIDLK	2.13
DDHEHFHREIWRTWLELQLTGDPHRLERLADPHVRFVYGDKVFHGREKMSEHFERENRELGIDHVEVRIKDSRFIDGRVHHDSELIIRVDGRTYKHDVKVIIDKVDGRWNIQKVEIR	1.07
DDHEKDLTDMARRNYHWWKTGDFDRVIDLLDPTTRLIVGDKKFHGWDEFSHALELFRKQLRPNDSKLKREEVYGDKMVIHSHLHGTVDGKEVHHDVIFTFVIIDGRIHLIIIEPR	0.516
DDHEKIVQHLLEEIIEIWLTGNFEEHLKRFDPDMRLNVNGVEHHGRESNERWFNKQIERYKNATIHHRIESVDVQGDKVHSDGELIYIQGDKIIRTKIIVRLLVVNGRIKRIEIEMI	1.31
DDHEKLSEEHMRFIRHAIKTGDEETLKELADPDMRINVNGRLFHGWEHFFKIWEHIRRHLRFKDYDIHDFEIYGDKIHADTRVKSRVNGVERIITTEVLIMKVDGRWYNHEVRLH	0.71
DDHEKRLEEYMKHWFENLMTGNEERLHELADPNARFHLHFENHEVDLIGREDIIKWWREFLHRVKNIRHHLDHLEIQGEKSHLDMTLNIDGKEYRVRIIVVIVNGKIHKVIVDIR	2.23
DDHERDAERAIKELMHNFETGNEDFLNEMADPNMRVIINGKEHIGWENFRHHLRRVLHELRIKRIHIRQVRVQGEWVNVISEFIGEVDGREHRVETSYILLKVNGRWTLHSMYFE	2.69

— the NTF2 design screens of Basanta et al. (2020)
